Numbered stars: 1 amine (or outer) side, 2 acyl side, 3 side chain; on linkers, the order of the positions; unused ones are H or OH. Bridge positions count the residues as written; N and C are the ends. Side chains are listed from the residue outwards. Ends that are not written are not given here. * marks the point of attachment. C20 diacid = O=C(O)CCCCCCCCCCCCCCCCCCC(=O)*; γGlu = O=C(O)[C@H](CCC(=O)[*:2])N[*:1]
Key:
[1] = target: T1, human calcitonin receptor (human, UniProt P30988 25-474); experiment: ratio IC50 hCTR / IC50 hAmylin-R (reference: human amylin receptor), SPA competition assays
T1 construct: whole, on cells; Assay used cell membranes, not intact cells; also called hCTR; hCT
T1 sequence (looked up): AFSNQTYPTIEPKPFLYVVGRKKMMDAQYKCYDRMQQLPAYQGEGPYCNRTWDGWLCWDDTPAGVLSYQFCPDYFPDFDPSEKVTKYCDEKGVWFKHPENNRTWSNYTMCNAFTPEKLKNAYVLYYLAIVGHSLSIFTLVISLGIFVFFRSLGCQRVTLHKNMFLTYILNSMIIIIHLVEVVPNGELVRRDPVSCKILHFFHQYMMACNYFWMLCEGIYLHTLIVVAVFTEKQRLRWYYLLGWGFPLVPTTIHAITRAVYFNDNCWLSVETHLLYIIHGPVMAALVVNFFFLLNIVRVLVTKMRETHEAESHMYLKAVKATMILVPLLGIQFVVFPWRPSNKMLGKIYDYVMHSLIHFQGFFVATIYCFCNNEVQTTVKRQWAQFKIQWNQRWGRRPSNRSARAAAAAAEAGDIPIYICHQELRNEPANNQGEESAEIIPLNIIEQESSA
In short: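 IC₅₀ values were derived by one-site competition analysis of SPA counts. Cell membranes (35 ng/μL) with SPA beads were incubated with test compounds for 120 min at 25° C in Hepes buffer, pH 7.4, containing CaCl2, MgCl₂, OA and Tween20.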

[2] = target: T1, human calcitonin receptor; experiment: SPA competition with 125I-calcitonin on membranes of BHK cells with human calcitonin receptor (Assay VII)
In short: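 BHK hCTR membranes 35 ng/μL + SPA beads 0.05 mg/well; buffer 50 mM Hepes pH 7.4, 1 mM CaCl2, 5 mM MgCl₂, 0.1% OA, 0.02% Tween20. 120 min, 25° C., shaking. Scintillation count; IC50 by one-site binding competition.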

[3] = target: T2, human amylin receptor (amylin 3(a) receptor: human calcitonin receptor with RAMP-3) (human, UniProt P30988 25-474; O60896 24-148); experiment: SPA competition with 125I-rat amylin on membranes of BHK cells with human calcitonin receptor and RAMP-3 (Assay V)
T2 construct: whole, on cells; Assay used cell membranes of the Amylin 3(a)/CRE-luc BHK cells, not intact cells; also called hAmylin-R; hAmylinR
T2 sequence (looked up) 1: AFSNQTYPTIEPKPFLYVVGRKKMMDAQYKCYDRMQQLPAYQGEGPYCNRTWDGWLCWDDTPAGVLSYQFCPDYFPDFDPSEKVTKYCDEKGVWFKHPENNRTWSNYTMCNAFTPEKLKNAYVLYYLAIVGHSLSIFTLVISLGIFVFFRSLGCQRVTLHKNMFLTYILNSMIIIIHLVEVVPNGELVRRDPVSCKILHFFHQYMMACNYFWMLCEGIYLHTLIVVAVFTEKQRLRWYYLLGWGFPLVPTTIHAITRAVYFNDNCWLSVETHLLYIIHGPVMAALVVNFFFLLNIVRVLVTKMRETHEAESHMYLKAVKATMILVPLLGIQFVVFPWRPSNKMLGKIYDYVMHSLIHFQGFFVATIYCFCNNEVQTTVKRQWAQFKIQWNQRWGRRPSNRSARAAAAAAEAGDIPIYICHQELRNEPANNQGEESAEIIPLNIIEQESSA
T2 sequence (looked up) 2: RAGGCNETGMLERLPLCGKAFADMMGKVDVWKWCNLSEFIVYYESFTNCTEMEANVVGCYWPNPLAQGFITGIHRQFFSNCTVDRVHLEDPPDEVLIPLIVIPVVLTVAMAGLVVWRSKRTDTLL
In short: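 Cell membranes were prepared by homogenisation in Na-HEPES/EDTA buffer, pH 7.4, and stored at −80° C. They were then coupled to SPA beads at 35 ng/μL final and exposed to compounds in assay buffer containing CaCl2, MgCl₂, OA and Tween20. After 120 min at 25° C, plates were counted and IC₅₀ derived.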

B1: N^ε1-[(4S)-4-carboxy-4-[[(4S)-4-carboxy-4-(19-carboxynonadecanoylamino)butanoyl]amino]butanoyl]-[Glu14,Arg17,Pro21,Pro27,His34,Glu35]-h-amylin (peptide)
peptide: K([γGlu-γGlu-C20 diacid])CNTATCATQRLAEFLRHSSPNFGAIPSSTNVGHETY-NH2
modifications: disulfide 2-7; N-terminus assumed
SMILES: CC[C@H](C)[C@H](NC(=O)[C@H](C)NC(=O)CNC(=O)[C@H](Cc1ccccc1)NC(=O)[C@H](CC(N)=O)NC(=O)[C@@H]1CCCN1C(=O)[C@H](CO)NC(=O)[C@H](CO)NC(=O)[C@H](Cc1c[nH]cn1)NC(=O)[C@H](CCCNC(=N)N)NC(=O)[C@H](CC(C)C)NC(=O)[C@H](Cc1ccccc1)NC(=O)[C@H](CCC(=O)O)NC(=O)[C@H](C)NC(=O)[C@H](CC(C)C)NC(=O)[C@H](CCCNC(=N)N)NC(=O)[C@H](CCC(N)=O)NC(=O)[C@@H](NC(=O)[C@H](C)NC(=O)[C@@H]1CSSC[C@H](NC(=O)[C@@H](N)CCCCNC(=O)CC[C@H](NC(=O)CC[C@H](NC(=O)CCCCCCCCCCCCCCCCCCC(=O)O)C(=O)O)C(=O)O)C(=O)N[C@@H](CC(N)=O)C(=O)N[C@@H]([C@@H](C)O)C(=O)N[C@@H](C)C(=O)N[C@@H]([C@@H](C)O)C(=O)N1)[C@@H](C)O)C(=O)N1CCC[C@H]1C(=O)N[C@@H](CO)C(=O)N[C@@H](CO)C(=O)N[C@H](C(=O)N[C@@H](CC(N)=O)C(=O)N[C@H](C(=O)NCC(=O)N[C@@H](Cc1c[nH]cn1)C(=O)N[C@@H](CCC(=O)O)C(=O)N[C@H](C(=O)N[C@@H](Cc1ccc(O)cc1)C(N)=O)[C@@H](C)O)C(C)C)[C@@H](C)O
- Ratio hCT/hAmylin binding [1]: 29.1
- IC50 [2]: 15.2 nM
- IC50 [3]: 0.525 nM

B2: N^ε1-[(4S)-4-carboxy-4-[[(4S)-4-carboxy-4-(19-carboxynonadecanoylamino)butanoyl]amino]butanoyl]-[Glu14,Arg17,Pro21,Pro27,His34]-h-amylin (peptide)
peptide: K([γGlu-γGlu-C20 diacid])CNTATCATQRLAEFLRHSSPNFGAIPSSTNVGHNTY-NH2
modifications: disulfide 2-7; N-terminus assumed
SMILES: CC[C@H](C)[C@H](NC(=O)[C@H](C)NC(=O)CNC(=O)[C@H](Cc1ccccc1)NC(=O)[C@H](CC(N)=O)NC(=O)[C@@H]1CCCN1C(=O)[C@H](CO)NC(=O)[C@H](CO)NC(=O)[C@H](Cc1c[nH]cn1)NC(=O)[C@H](CCCNC(=N)N)NC(=O)[C@H](CC(C)C)NC(=O)[C@H](Cc1ccccc1)NC(=O)[C@H](CCC(=O)O)NC(=O)[C@H](C)NC(=O)[C@H](CC(C)C)NC(=O)[C@H](CCCNC(=N)N)NC(=O)[C@H](CCC(N)=O)NC(=O)[C@@H](NC(=O)[C@H](C)NC(=O)[C@@H]1CSSC[C@H](NC(=O)[C@@H](N)CCCCNC(=O)CC[C@H](NC(=O)CC[C@H](NC(=O)CCCCCCCCCCCCCCCCCCC(=O)O)C(=O)O)C(=O)O)C(=O)N[C@@H](CC(N)=O)C(=O)N[C@@H]([C@@H](C)O)C(=O)N[C@@H](C)C(=O)N[C@@H]([C@@H](C)O)C(=O)N1)[C@@H](C)O)C(=O)N1CCC[C@H]1C(=O)N[C@@H](CO)C(=O)N[C@@H](CO)C(=O)N[C@H](C(=O)N[C@@H](CC(N)=O)C(=O)N[C@H](C(=O)NCC(=O)N[C@@H](Cc1c[nH]cn1)C(=O)N[C@@H](CC(N)=O)C(=O)N[C@H](C(=O)N[C@@H](Cc1ccc(O)cc1)C(N)=O)[C@@H](C)O)C(C)C)[C@@H](C)O
notes: also called compound 87
- Ratio hCT/hAmylin binding [1]: 35.6
- IC50 [2]: 22.5 nM
- IC50 [3]: 0.633 nM

— patent US20140087995A1 (published 2014)
